We go through five molecules from US20230332136A1, “IL-17 RECEPTOR MODULATOR SCREENING SYSTEM” (New York University, priority 2022, published 2023).

One test addresses T1, hIL-17RA/RC (Homo sapiens, UniProt Q8NAC3+Q96F46).
T1 construct: expressed in transfected cells; host or cells: MEF cells stably transduced with retroviral constructs (clonal hADIR-17 line)
T1 sequence (Q96F46 33-866): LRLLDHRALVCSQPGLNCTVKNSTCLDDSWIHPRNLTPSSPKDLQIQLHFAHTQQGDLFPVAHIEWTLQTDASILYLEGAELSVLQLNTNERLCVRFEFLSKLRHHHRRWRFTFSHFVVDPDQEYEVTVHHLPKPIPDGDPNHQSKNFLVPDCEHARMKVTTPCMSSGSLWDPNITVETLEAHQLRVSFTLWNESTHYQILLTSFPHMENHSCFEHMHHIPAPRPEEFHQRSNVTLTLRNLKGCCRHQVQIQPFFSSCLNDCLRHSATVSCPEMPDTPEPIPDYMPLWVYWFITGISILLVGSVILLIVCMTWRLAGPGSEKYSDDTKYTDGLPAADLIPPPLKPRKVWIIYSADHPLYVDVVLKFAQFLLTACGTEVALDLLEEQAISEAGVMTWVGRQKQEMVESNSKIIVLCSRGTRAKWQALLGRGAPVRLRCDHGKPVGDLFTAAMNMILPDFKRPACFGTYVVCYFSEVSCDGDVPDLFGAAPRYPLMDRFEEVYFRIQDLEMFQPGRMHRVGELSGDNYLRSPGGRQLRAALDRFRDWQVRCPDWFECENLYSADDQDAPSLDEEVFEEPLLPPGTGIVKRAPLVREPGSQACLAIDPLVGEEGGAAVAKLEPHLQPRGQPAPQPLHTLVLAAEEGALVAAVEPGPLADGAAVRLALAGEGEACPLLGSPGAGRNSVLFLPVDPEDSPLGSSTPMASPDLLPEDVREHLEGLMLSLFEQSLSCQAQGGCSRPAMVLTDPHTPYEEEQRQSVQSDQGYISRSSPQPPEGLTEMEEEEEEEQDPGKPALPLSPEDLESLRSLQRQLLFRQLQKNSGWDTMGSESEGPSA
T1 sequence (Q8NAC3 21-705 isoform Q8NAC3-3 limits assumed): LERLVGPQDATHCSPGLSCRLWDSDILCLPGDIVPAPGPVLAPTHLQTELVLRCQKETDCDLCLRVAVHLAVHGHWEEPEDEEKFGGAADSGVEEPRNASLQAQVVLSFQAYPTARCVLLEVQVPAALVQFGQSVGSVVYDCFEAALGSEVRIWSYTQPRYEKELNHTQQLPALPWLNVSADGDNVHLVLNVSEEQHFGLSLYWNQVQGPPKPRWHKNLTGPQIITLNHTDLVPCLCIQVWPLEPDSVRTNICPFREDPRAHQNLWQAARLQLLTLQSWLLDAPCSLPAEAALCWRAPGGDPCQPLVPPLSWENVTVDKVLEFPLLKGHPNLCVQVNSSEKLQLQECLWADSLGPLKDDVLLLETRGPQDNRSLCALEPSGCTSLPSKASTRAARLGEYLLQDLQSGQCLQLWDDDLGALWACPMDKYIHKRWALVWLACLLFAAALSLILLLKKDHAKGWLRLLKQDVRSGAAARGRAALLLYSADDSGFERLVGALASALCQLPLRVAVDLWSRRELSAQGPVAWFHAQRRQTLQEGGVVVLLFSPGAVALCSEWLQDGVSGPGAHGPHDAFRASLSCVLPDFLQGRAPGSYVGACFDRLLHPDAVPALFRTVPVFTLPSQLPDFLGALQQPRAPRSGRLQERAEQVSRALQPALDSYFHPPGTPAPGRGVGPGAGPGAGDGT
Briefly: hADIR-17 dmCherry reporter assay (clonal cell line). In kind it is cell-based. The conditions noted are these: activator screen, increasing doses (FIG. 12). As for the experimental part: FIG. 9 provides a graphical depiction of constructs for use with human IL-17 receptors. Similar retroviral transfer plasmid constructs as mouse, with human cDNA sequences replacing mouse cDNA. Exogenous hIL-17RA is provided for a functional hADIR system. hIL-17RC, RB, RE constructs are added last separately to MEF cells already stably transduced with the other three required components, generating 3 independent cell lines.
(§1) Mouse constructs were produced as depicted in the panels of FIG. 1. Human sequence constructs were produced as in the panels of FIG. 9, where mouse cDNA constructs were replaced by human cDNA constructed. In the mouse ADIR system exogenous IL-17RC was not provided because the cell line (mouse embryonic fibroblasts) have endogenous IL-17RC expression. In the hADIR system, human components used for the hADIR system (hRA, hRC, hRB, hAct1) were expressed from added polynucleotides.
The data reflected in the Figures utilized a reporter system specifically designed for Act1-dependent IL-17 signaling pathways. The reporter system is based at least in part on the principle that the engagement of active cognate ligands, and the interaction between Act1 and IL-17 receptors is required for active signaling of IL-17A/F, IL-17E, and IL-17C. The protein-protein-interaction (PPI) based reporter system is highly specific and easily scalable. The disclosure is illustrated using mouse and human systems. For the data presented in the Figures, the system comprised a three-part reporter system specifically designed for detecting IL-17A/F, IL-17E, and IL-17C signaling. The PPI-based reporter system provides for detecting active signaling, and is specific for each of the IL-17 family cytokines. […] Each of the retroviral vectors can contain a unique selection or fluorescent marker to enable efficient generation and maintenance of stable cell lines (for example, Puromycin resistance for m/hIL-17RC(RB, RE)-TSC-tTA; EBFP for m/hAct1-TEV; Neomycin resistance and mVenus fluorescence for TRE-dmCherry-PEST, and Thy1.1 for m/hRA).

In the next test the target is T2, IL-17RA/RC (Mus musculus, UniProt Q60943+Q8K4C2).
T2 construct: Full length IL-17RC in the purified ADIR system; expressed in transfected cells; host or cells: mouse embryonic fibroblasts (MEF), retrovirally transduced
T2 sequence (Q60943 32-864): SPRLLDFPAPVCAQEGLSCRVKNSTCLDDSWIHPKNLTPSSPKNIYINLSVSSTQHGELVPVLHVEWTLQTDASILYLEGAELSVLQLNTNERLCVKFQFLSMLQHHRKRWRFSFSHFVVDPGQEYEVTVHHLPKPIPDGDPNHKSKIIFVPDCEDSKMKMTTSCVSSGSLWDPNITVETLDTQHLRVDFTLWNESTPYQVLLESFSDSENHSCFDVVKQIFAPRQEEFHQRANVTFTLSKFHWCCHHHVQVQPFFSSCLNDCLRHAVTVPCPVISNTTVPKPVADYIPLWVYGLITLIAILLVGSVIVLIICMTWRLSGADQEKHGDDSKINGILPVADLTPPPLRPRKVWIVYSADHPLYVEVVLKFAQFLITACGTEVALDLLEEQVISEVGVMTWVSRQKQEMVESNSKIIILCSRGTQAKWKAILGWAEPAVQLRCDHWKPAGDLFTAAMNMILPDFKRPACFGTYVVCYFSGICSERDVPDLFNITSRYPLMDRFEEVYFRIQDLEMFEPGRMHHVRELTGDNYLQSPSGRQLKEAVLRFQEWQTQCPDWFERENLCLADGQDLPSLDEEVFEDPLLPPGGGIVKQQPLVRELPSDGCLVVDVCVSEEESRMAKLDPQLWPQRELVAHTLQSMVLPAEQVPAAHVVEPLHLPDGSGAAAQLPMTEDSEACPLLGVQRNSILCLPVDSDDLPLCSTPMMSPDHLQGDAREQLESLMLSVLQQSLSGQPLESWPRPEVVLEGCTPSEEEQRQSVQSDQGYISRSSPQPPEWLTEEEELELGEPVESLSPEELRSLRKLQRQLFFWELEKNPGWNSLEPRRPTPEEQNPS
T2 sequence (Q8K4C2 22-698): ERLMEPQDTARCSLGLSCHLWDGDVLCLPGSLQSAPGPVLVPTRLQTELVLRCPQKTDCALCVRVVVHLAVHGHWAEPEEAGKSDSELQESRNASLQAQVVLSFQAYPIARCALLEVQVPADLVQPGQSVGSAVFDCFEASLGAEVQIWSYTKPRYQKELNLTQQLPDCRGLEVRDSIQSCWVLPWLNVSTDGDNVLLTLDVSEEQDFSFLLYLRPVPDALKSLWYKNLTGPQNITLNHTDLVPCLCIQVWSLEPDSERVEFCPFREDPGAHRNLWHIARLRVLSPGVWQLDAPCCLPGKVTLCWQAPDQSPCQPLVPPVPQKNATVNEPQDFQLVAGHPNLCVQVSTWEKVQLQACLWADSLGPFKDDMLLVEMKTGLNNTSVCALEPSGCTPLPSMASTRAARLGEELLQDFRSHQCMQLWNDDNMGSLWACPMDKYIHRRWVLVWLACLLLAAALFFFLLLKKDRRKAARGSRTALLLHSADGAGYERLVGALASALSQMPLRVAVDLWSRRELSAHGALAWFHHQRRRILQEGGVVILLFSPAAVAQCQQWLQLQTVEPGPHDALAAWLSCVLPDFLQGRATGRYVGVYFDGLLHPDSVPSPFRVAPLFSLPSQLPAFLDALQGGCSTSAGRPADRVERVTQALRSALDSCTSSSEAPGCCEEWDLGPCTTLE
The test can be described thus: mADIR-17 dmCherry reporter assay in MEF cells (flow cytometry). Type of test: cell-based. The conditions noted are these: for dmCherry signal produced: after 24 hrs (FIG. 7).
Source text: Unless defined otherwise herein, all technical and scientific terms used in this disclosure have the same meaning as commonly understood by one of ordinary skill in the art to which this disclosure pertains. Where the term “ADIR” is used herein it means ACT1-Dependent IL-17 Receptor Modulator Screening System. The preface “m” means mouse and the prefix “h” means human.
as §1
The data reflected in the Figures utilized a reporter system specifically designed for Act1-dependent IL-17 signaling pathways. The reporter system is based at least in part on the principle that the engagement of active cognate ligands, and the interaction between Act1 and IL-17 receptors is required for active signaling of IL-17A/F, IL-17E, and IL-17C. The protein-protein-interaction (PPI) based reporter system is highly specific and easily scalable. The disclosure is illustrated using mouse and human systems. For the data presented in the Figures, the system comprised a three-part reporter system specifically designed for detecting IL-17A/F, IL-17E, and IL-17C signaling. The PPI-based reporter system provides for detecting active signaling, and is specific for each of the IL-17 family cytokines. The system that is responsive to binding of IL-17A and IL-17F comprises (1) an Act1-tobacco etch virus (TEV) protease fusion protein, which upon active IL-17A/F binding to the IL-17RA/RC receptor heterodimer on a target cell, will be recruited to (2) IL-17RC fused with a TEV cleavage site(TSC)-tTA (a transcriptional transactivator that binds to tetracycline responsive element, or TRE), releasing tTA, which will subsequently translocate into the nucleus where a (3) TRE-dmCherry-PEST (destabilized mCherry) element is integrated into the genome. tTA binds to the TRE to drive dmCherry expression in the target modified cell. The three described components, Act1-TEV, IL-17RC-TSC-tTA, and TRE-dmCherry-PEST, along with IL-17RA, can be delivered by retro or lenti-viral vectors or guide-RNA directed nucleases, or recombinase systems, or by homologous recombination, into mouse embryonic fibroblasts (MEF) or other mammalian cell lines, establishing stable reporter cell lines. Using the same principle, IL-17RC-TSC-tTA can be replaced with IL-17RB-TSC-tTA in the described system to provide for IL-17E (IL-25) binding, and with IL-17RE-TSC-tTA for detecting IL-17C binding. A parallel approach involves attaching the fusion protein of —TSC-tTA to the RA component and three independent system cell lines generated by supplementing RC/RB/RE, Act1-TEV, and TRE-dmCherry reporter components. Each of the retroviral vectors can contain a unique selection or fluorescent marker to enable efficient generation and maintenance of stable cell lines (for example, Puromycin resistance for m/hIL-17RC(RB, RE)-TSC-tTA; EBFP for m/hAct1-TEV; Neomycin resistance and mVenus fluorescence for TRE-dmCherry-PEST, and Thy1.1 for m/hRA).

Regarding “hIL-17F: human IL-17F cytokine, cognate ligand in the hADIR-17 system”, the “dmCherry signal response of hADIR-17 clone to ligand” value (“dmCherry signal response” below) with hIL-17RA/RC is on record as “dose-dependent response”.

For “hIL-17A: human IL-17A cytokine, cognate ligand in the hADIR-17 system”, the “dmCherry signal response” value with hIL-17RA/RC is “dose-dependent response”.

B1: IL-17F: mouse IL-17 family cytokine, cognate ligand of IL-17RA/RC (protein, UniProt Q7TNI7 29-161, looked up)
Interleukin-17F: RKNPKAGVPALQKAGNCPPLEDNTVRVDIRIFNQNQGISVPREFQNRSSSPWDYNITRDPHRFPSEIAEAQCRHSGCINAQGQEDSTMNSVAIQQEILVLRREPQGCSNSFRLEKMLLKVGCTCVKPIVHQAA
As to B1, the dmCherry signal produced with IL-17RA/RC (0.4 ng/ml) is given as 0.48%; with IL-17RA/RC (2 ng/ml), 0.81%; with IL-17RA/RC (10 ng/ml), 3.32%; in the test with IL-17RA/RC (50 ng/ml), 13.8%.

B2: hIL-25: human IL-25, non-cognate ligand for hADIR-17; cognate ligand of the hADIR-25 system (protein, UniProt Q9H293 33-177, looked up)
Interleukin-25: YSHWPSCCPSKGQDTSEELLRWSTVPVPPLEPARPNRHPESCRASEDGPLNSRAISPWRYELDRDLNRLPQDLYHARCLCPHCVSLQTGSHMDPRGNSELLYHNQTVFYRRPCHGEKGTHKGYCLERRLYRVSLACVCVRPRVMG
On to B2, for which, in the test with hIL-17RA/RC, the “dmCherry signal response” value is “does not respond”.

B3: IL-25: IL-25 (IL17E), noncognate ligand for the mADIR-17 system; binds IL-17RA/RB (protein, UniProt Q8VHH8 17-169, looked up)
Interleukin-25: VSLRIQEGCSHLPSCCPSKEQEPPEEWLKWSSASVSPPEPLSHTHHAESCRASKDGPLNSRAISPWSYELDRDLNRVPQDLYHARCLCPHCVSLQTGSHMDPLGNSVPLYHNQTVFYRRPCHGEEGTHRRYCLERRLYRVSLACVCVRPRVMA
For B3, the “responsiveness of mADIR-17 cells (dmCherry signal) to ligand” value with IL-17RA/RC (noncognate ligand, any doses, after 24 hrs, listed as mIL-17E) is listed as “not responsive”.
